Experimental data: the supplement of paper PMC9876800

Tested on: peptide library, one residue held at a place counted from the S/T acceptor
Experiment: relative phosphorylation of the sub-library (ratio to the mean residue at this position); higher = residue favoured
Conditions: human
Method in brief: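 Relative sub-library phosphorylation, a ratio to the mean residue at that position, was obtained by phosphorimaging and densitometry of spots on streptavidin membranes. Before capture, purified recombinant kinases were incubated for 90 min under kinase-specific conditions with 50 μM biotinylated degenerate peptide sub-libraries and 50 μM ATP spiked with γ-32P-ATP. Each sub-library fixed one residue at one position around a central Ser/Thr.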

ACVR2B, construct: aa161-end, sequence (Q13705 161-512, looked up): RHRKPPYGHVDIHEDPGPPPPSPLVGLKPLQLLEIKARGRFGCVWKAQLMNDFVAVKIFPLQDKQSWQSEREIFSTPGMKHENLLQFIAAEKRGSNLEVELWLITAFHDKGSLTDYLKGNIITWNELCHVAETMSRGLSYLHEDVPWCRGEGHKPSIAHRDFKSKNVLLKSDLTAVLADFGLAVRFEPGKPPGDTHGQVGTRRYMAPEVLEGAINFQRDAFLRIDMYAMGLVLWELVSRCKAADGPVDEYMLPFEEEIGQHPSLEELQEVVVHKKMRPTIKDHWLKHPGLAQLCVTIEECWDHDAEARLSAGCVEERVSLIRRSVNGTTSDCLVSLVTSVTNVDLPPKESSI
STK24, construct: Full length, sequence (Q9Y6E0 whole entry, looked up): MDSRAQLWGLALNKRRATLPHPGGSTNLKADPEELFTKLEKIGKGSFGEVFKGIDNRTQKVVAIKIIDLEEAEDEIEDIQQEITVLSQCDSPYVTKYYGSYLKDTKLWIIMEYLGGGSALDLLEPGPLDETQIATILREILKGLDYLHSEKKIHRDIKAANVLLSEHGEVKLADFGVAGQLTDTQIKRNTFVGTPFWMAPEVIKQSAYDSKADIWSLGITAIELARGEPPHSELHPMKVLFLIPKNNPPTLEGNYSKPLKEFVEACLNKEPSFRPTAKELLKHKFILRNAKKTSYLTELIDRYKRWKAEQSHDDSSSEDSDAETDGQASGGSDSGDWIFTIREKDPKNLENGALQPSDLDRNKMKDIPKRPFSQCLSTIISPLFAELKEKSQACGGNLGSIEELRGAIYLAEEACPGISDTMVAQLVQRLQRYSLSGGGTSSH
DAPK3, construct: aa1-404, sequence (O43293 1-404, looked up): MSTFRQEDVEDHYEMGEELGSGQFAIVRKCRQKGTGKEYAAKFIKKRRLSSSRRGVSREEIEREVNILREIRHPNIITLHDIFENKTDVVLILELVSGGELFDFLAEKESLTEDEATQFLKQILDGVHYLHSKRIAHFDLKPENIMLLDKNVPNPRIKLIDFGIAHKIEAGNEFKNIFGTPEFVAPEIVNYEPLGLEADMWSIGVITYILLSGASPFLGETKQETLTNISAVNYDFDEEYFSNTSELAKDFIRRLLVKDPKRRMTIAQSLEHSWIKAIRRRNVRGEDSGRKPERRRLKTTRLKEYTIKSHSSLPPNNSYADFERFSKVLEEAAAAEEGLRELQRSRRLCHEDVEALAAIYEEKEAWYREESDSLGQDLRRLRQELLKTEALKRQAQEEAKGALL

RPS6KA4, construct: Full length (from UniProt O75676)
relative phosphorylation
Conditions | at +1 | at +2 | at +3 | at +4 | at -1 | at -2 | at -3 | at -4 | at -5
A fixed | 0.665 | 0.804 | 0.781 | 0.843 | 0.745 | 0.911 | 0.769 | 1.08 | 1.06
D fixed | 0.621 | 1.61 | 1.12 | 1.43 | 0.996 | 0.411 | 0.319 | 0.715 | 0.699
E fixed | 0.77 | 1.07 | 1.12 | 1.33 | 0.567 | 0.413 | 0.329 | 0.853 | 0.661
F fixed | 1.3 | 0.921 | 1.08 | 0.864 | 0.749 | 0.749 | 0.472 | 0.868 | 1.01
G fixed | 0.547 | 0.65 | 1.03 | 1.1 | 1.11 | 0.775 | 0.465 | 1.15 | 1.06
H fixed | 1.21 | 1.7 | 1.3 | 1.35 | 1.04 | 0.924 | 0.817 | 1.17 | 1.2
I fixed | 1.26 | 0.85 | 0.811 | 0.767 | 0.44 | 0.354 | 0.258 | 0.665 | 0.858
K fixed | 0.634 | 0.72 | 0.71 | 0.934 | 1.41 | 1.2 | 0.915 | 1.32 | 1.25
L fixed | 1 | 0.698 | 0.998 | 0.782 | 0.791 | 0.518 | 0.285 | 0.679 | 1
M fixed | 1.27 | 0.909 | 1.04 | 0.867 | 1.04 | 0.629 | 0.373 | 0.84 | 0.857
N fixed | 0.937 | 1.44 | 0.935 | 1.23 | 1.57 | 0.861 | 0.473 | 1.01 | 0.871
P fixed | 0.345 | 0.5 | 0.942 | 1.09 | 1.3 | 0.429 | 0.64 | 1.01 | 0.887
Q fixed | 1.1 | 0.873 | 0.949 | 1.25 | 1.19 | 0.885 | 0.642 | 1.09 | 0.831
R fixed | 0.771 | 0.869 | 0.677 | 0.74 | 1.5 | 6.18 | 8.7 | 1.81 | 1.96
V fixed | 1.24 | 0.807 | 0.726 | 0.639 | 0.51 | 0.354 | 0.247 | 0.583 | 0.773
W fixed | 1.89 | 1.39 | 1.62 | 1.07 | 0.898 | 0.748 | 0.738 | 1.13 | 1.19
Y fixed | 1.44 | 1.18 | 1.17 | 0.72 | 1.14 | 0.66 | 0.555 | 1.04 | 0.832
pThr fixed | 1.11 | 1.18 | 1.15 | 1.83 | 0.415 | 0.419 | 0.515 | 0.698 | 0.644
pTyr fixed | 1.57 | 1.17 | 1.47 | 1.39 | 1.27 | 0.502 | 0.491 | 0.81 | 0.804

DAPK3, construct: aa1-404 (from UniProt O43293)
relative phosphorylation
Conditions | at +1 | at +2 | at +3 | at +4 | at -1 | at -2 | at -3 | at -4 | at -5
A fixed | 0.877 | 0.903 | 0.724 | 0.839 | 0.73 | 1.06 | 0.654 | 1 | 0.953
D fixed | 1.61 | 0.84 | 0.753 | 0.791 | 0.823 | 0.448 | 0.447 | 0.844 | 0.79
E fixed | 1.69 | 0.976 | 0.719 | 0.706 | 0.601 | 0.398 | 0.393 | 0.85 | 0.666
F fixed | 0.52 | 0.932 | 1.02 | 1.14 | 0.667 | 0.338 | 0.412 | 0.759 | 0.583
G fixed | 1.15 | 0.661 | 0.89 | 0.939 | 0.888 | 0.74 | 0.636 | 0.947 | 1.03
H fixed | 0.825 | 1.01 | 1.04 | 1.51 | 1.29 | 1.24 | 0.835 | 1.1 | 1.17
I fixed | 0.786 | 0.873 | 1.95 | 0.95 | 0.58 | 0.313 | 0.311 | 0.645 | 0.73
K fixed | 0.595 | 0.789 | 0.685 | 0.712 | 1.48 | 1.33 | 2.51 | 1.65 | 1.59
L fixed | 0.707 | 1.44 | 1.63 | 0.902 | 0.946 | 0.361 | 0.365 | 0.677 | 0.927
M fixed | 1.15 | 1.5 | 1.08 | 0.984 | 0.943 | 0.415 | 0.422 | 0.871 | 0.912
N fixed | 1.33 | 1.03 | 0.776 | 1 | 1.69 | 0.952 | 0.548 | 0.85 | 0.891
P fixed | 0.309 | 0.9 | 0.78 | 0.885 | 1.06 | 0.406 | 0.703 | 0.854 | 0.959
Q fixed | 2.62 | 1.25 | 0.804 | 0.797 | 1.15 | 0.989 | 0.769 | 1.04 | 0.942
R fixed | 0.811 | 1.13 | 0.942 | 1.03 | 1.71 | 6.46 | 6.61 | 2.25 | 2.36
V fixed | 0.807 | 0.827 | 1.41 | 0.927 | 0.698 | 0.397 | 0.294 | 0.844 | 0.699
W fixed | 0.638 | 0.941 | 0.984 | 1.61 | 0.753 | 0.755 | 0.634 | 1.02 | 0.776
Y fixed | 0.582 | 1.01 | 0.808 | 1.28 | 1 | 0.401 | 0.462 | 0.803 | 1.01
pThr fixed | 1.83 | 1.01 | 0.854 | 1.04 | 0.695 | 0.53 | 0.633 | 0.84 | 0.973
pTyr fixed | 1.19 | 1.02 | 1.35 | 1.08 | 0.957 | 0.623 | 0.605 | 0.929 | 1.1

ACVR2B, construct: aa161-end (from UniProt Q13705)
relative phosphorylation
Conditions | at +1 | at +2 | at +3 | at +4 | at -1 | at -2 | at -3 | at -4 | at -5
A fixed | 0.595 | 1.11 | 0.975 | 1.11 | 0.803 | 0.672 | 0.922 | 0.979 | 0.962
D fixed | 2.06 | 1.33 | 0.992 | 1.24 | 1.46 | 3.9 | 1.99 | 1.75 | 1.81
E fixed | 3.92 | 1.1 | 1.26 | 1.18 | 1.31 | 5.09 | 2 | 1.49 | 1.53
F fixed | 0.786 | 0.848 | 0.958 | 0.819 | 1.01 | 0.514 | 0.898 | 1.06 | 1.03
G fixed | 0.531 | 1.27 | 1.09 | 0.987 | 0.57 | 0.472 | 0.941 | 1.07 | 0.878
H fixed | 0.823 | 0.877 | 0.867 | 0.955 | 1.01 | 0.664 | 0.928 | 1.04 | 0.88
I fixed | 0.875 | 0.985 | 1 | 0.924 | 0.746 | 0.396 | 0.77 | 0.78 | 0.752
K fixed | 0.372 | 0.75 | 0.617 | 0.767 | 0.554 | 0.403 | 0.722 | 0.644 | 0.734
L fixed | 0.752 | 0.69 | 1.17 | 0.901 | 1.38 | 0.532 | 0.725 | 0.88 | 0.8
M fixed | 0.917 | 0.868 | 1.03 | 0.887 | 1.37 | 0.458 | 0.802 | 0.853 | 0.878
N fixed | 0.742 | 0.933 | 0.887 | 0.905 | 0.948 | 0.876 | 0.987 | 0.971 | 1.01
P fixed | 0.316 | 1.41 | 1.18 | 1.22 | 0.595 | 0.335 | 0.784 | 0.913 | 0.905
Q fixed | 1.02 | 0.859 | 0.904 | 0.994 | 0.81 | 0.659 | 0.947 | 0.838 | 0.847
R fixed | 0.374 | 0.826 | 0.769 | 0.827 | 0.531 | 0.45 | 0.621 | 0.626 | 0.802
V fixed | 1.06 | 1.13 | 0.98 | 0.941 | 1.04 | 0.534 | 0.892 | 0.883 | 0.924
W fixed | 0.969 | 0.954 | 1.13 | 1.33 | 1.56 | 0.512 | 1.11 | 1.2 | 1.23
Y fixed | 0.886 | 1.07 | 1.19 | 0.998 | 1.31 | 0.527 | 0.963 | 1.03 | 1.03
pThr fixed | 4.33 | 1.49 | 1.08 | 1.29 | 1.86 | 1.18 | 1.78 | 1.34 | 1.29
pTyr fixed | 2.48 | 1.11 | 1.19 | 1.08 | 1.85 | 0.886 | 2.34 | 1.45 | 1.26

STK24, construct: Full length (from UniProt Q9Y6E0)
relative phosphorylation
Conditions | at +1 | at +2 | at +3 | at +4 | at -1 | at -2 | at -3 | at -4 | at -5
A fixed | 0.627 | 0.917 | 0.954 | 0.963 | 1.01 | 0.99 | 1.02 | 1.14 | 1.34
D fixed | 0.166 | 0.344 | 0.465 | 0.516 | 0.762 | 0.388 | 0.58 | 0.738 | 0.689
E fixed | 0.175 | 0.268 | 0.443 | 0.499 | 0.483 | 0.344 | 0.586 | 0.869 | 0.689
F fixed | 1.29 | 0.471 | 0.999 | 0.679 | 0.781 | 1.19 | 0.855 | 0.867 | 0.873
G fixed | 0.498 | 1.11 | 1.15 | 0.979 | 1.88 | 1.34 | 1.48 | 1.34 | 1.2
H fixed | 0.946 | 1.11 | 1.17 | 1.03 | 1.12 | 1.44 | 1.05 | 1.08 | 1.07
I fixed | 1.77 | 0.493 | 0.827 | 0.727 | 0.43 | 0.782 | 0.675 | 0.743 | 0.713
K fixed | 0.827 | 3.1 | 2.09 | 2.43 | 1.57 | 1.41 | 1.84 | 1.51 | 1.87
L fixed | 1.76 | 0.472 | 1.01 | 0.716 | 0.98 | 0.635 | 0.737 | 0.75 | 0.719
M fixed | 1.61 | 0.6 | 0.843 | 0.846 | 0.897 | 0.702 | 0.738 | 0.81 | 0.68
N fixed | 0.547 | 0.871 | 0.812 | 0.998 | 1.27 | 1.05 | 1.06 | 0.97 | 0.902
P fixed | 0.401 | 0.807 | 0.802 | 0.952 | 0.751 | 0.765 | 0.959 | 0.94 | 1.2
Q fixed | 0.673 | 0.789 | 0.822 | 0.936 | 0.945 | 0.91 | 0.935 | 1.01 | 0.926
R fixed | 0.919 | 3.78 | 1.79 | 2.24 | 1.79 | 1.44 | 1.71 | 1.5 | 1.5
V fixed | 1.47 | 0.615 | 0.828 | 0.693 | 0.546 | 0.83 | 0.71 | 0.772 | 0.851
W fixed | 2.07 | 0.626 | 1.04 | 1.04 | 0.809 | 1.15 | 1.05 | 1.01 | 0.906
Y fixed | 1.25 | 0.618 | 0.968 | 0.76 | 0.981 | 1.64 | 1.01 | 0.951 | 0.868
pThr fixed | 1.19 | 1.05 | 0.892 | 0.801 | 0.865 | 1.28 | 1.61 | 1.33 | 1.43
pTyr fixed | 0.488 | 0.389 | 0.748 | 0.55 | 1.1 | 0.833 | 1.15 | 0.836 | 1.16
